Measured values: patent US20160303232A1 (Merrimack Pharmaceuticals, Inc., priority 2015, published 2016)
Entries after “also recorded” stand apart in the source; their conditions may differ. Structures can show the parent of a compound that is named as a salt.

Key:
[1] = test system: NSCLC cell lines (A549, EKVX, H358, H322M, Calu-3, H661, H441, H1355, H430); test: 3D spheroid proliferation assay with or without HRG and chemotherapy; type: cell-based, human; conditions: 5 nM HRG; docetaxel 111 nM, pemetrexed 1111 nM; 96hrs; three cell lines most responsive to HRG
Description: HRG-driven ErbB3 signaling mediates survival signaling through the PI3K/AKT pathway and has been implicated as a general mechanism that imparts insensitivity to cytotoxic chemotherapy. […] Proliferation was measured, in the presence or absence of HRG, in a panel of nine cell lines using 3D spheroid cultures.

[2] = test system: human ovarian epithelial carcinoma OVCAR8 cells; test: OVCAR8 xenograft model of ovarian cancer, combination therapy study; type: in vivo, mouse; conditions: for tumor progression over time: FIGS. 7A-7C, monotherapy versus co-administration with fixed dose of seribantumab; for tumor growth, single agent: i.p., seribantumab 300 μg Q3D, irinotecan HCl 6.25 mg/kg Q7D, gemcitabine 25 mg/kg Q7D, paclitaxel 10 mg/kg Q7D, three weeks
Source text: In these xenograft studies, the mice were obtained from Charles River Laboratories. The mice were housed in Tecniplast® Individually Ventilated polycarbonate (Makrolon®) Cages (IVC) set in climate-controlled rooms and had free access to food and acidified water. A cell suspension of 8×10^6 cells/mouse, mixed 1:1 in reduced growth factor Matrigel™ (BD Biosciences, Cat #354230) and PBS was implanted by subcutaneous injection into the left flank of female, 4-5 week old nu/nu nude, Crl:NU-Foxn1^nu mice. Tumors were allowed to reach 250 mm^3 in size before randomization.
Mice were randomized as above into 8 groups of 10 mice each. […] Treatment continued for three weeks. Tumors were measured twice weekly and tumor volume calculated.

[3] = Clinical studies of seribantumab co-administered with full doses of chemotherapy (MTD, safety); type: in vivo, human; conditions: co-administered with standard doses of pemetrexed, paclitaxel or cabazitaxel; 40 mg/kg loading dose then weekly 20 mg/kg
[4] = test system: HRG positive (HRG+) tumors; test: Previous randomized phase II clinical trials of seribantumab plus standard of care, by HRG expression; type: in vivo, human; conditions: seribantumab added to standard-of-care therapy; patients with HRG expression at or above threshold / HRG+ tumors
[5] = Population pharmacokinetic analysis of seribantumab, combined phase I and phase II studies, two-compartment model; type: in vivo, human
Source text: Covariate selection evaluated potential relationships between baseline covariates (sex, race, age, weight, intended-dose, and study/indication) and volume of distribution and clearance. The results indicated significant relationships between weight, sex, and clearance, with the final parameter estimates provided in Table 1. […] In the presence of the relationship between weight and clearance, no significant relationship between volume (V) and weight (WT) were observed.

[6] = fixed effect, final population PK estimate, 499 patients

Molecule	effect of HRG on inhibition of cell viability by chemotherapy (HRG-induced resistance) [1]	tumor progression over time [2]	tumor growth, single agent [2]	further results
CC(=O)O[C@@]12CO[C@@H]1C[C@H](O)[C@@]1(C)C(=O)[C@H](O)C3=C(C)[C@@H](OC(=O)[C@H](O)[C@@H](NC(=O)OC(C)(C)C)c4ccccc4)C[C@@](O)([C@@H](OC(=O)c4ccccc4)[C@H]21)C3(C)C [docetaxel, 1,7β,10β-trihydroxy-9-oxo-5β,20-epoxytax-11-ene-2α,4,13α-triyl 4-acetate 2-benzoate 13-{(2R,3S)-3-[(tert-butoxycarbonyl)amino]-2-hydroxy-3-phenylpropanoate}]	induces resistance; also recorded: decreased			
Nc1ccn([C@@H]2O[C@H](CO)[C@@H](O)C2(F)F)c(=O)n1 [gemcitabine]		began to progress over time	inhibited tumor growth	
CCc1c2c(nc3ccc(OC(=O)N4CCC(N5CCCCC5)CC4)cc13)-c1cc3c(c(=O)n1C2)COC(=O)[C@]3(O)CC [irinotecan HCl]		began to progress over time	inhibited tumor growth	
CC(=O)O[C@H]1C(=O)[C@@]2(C)[C@H]([C@H](OC(=O)c3ccccc3)[C@]3(O)C[C@H](OC(=O)[C@H](O)[C@@H](NC(=O)c4ccccc4)c4ccccc4)C(C)=C1C3(C)C)[C@]1(OC(C)=O)CO[C@@H]1C[C@@H]2O [paclitaxel]		began to progress over time	inhibited tumor growth	
Nc1nc(=O)c2c(CCc3ccc(C(=O)N[C@@H](CCC(=O)O)C(=O)O)cc3)c[nH]c2[nH]1 [pemetrexed, (2S)-2-{[4-[2-(2-amino-4-oxo-1,7-dihydropyrrolo[2,3-d]pyrimidin-5-yl)ethyl]benzoyl]amino}pentanedioic acid]	induces resistance; also recorded: decreased			
seribantumab: human monoclonal anti-ErbB3 IgG2; heavy chain SEQ ID NO:7, light chain SEQ ID NO:8 (antibody, listed as Homo sapiens) heavy: EVQLLESGGGLVQPGGSLRLSCAASGFTFSHYVMAWVRQAPGKGLEWVSSISSSGGWTLYADSVKGRFTISRDNSKNTLYLQMNSLRAEDTAVYYCTRGLKMATIFDYWGQGTLVTVSSASTKGPSVFPLAPCSRSTSESTAALGCLVKDYFPEPVTVSWNSGALTSGVHTFPAVLQSSGLYSLSSVVTVPSSNFGTQTYTCNVDHKPSNTKVDKTVERKCCVECPPCPAPPVAGPSVFLFPPKPKDTLMISRTPEVTCVVVDVSHEDPEVQFNWYVDGVEVHNAKTKPREEQFNSTFRVVSVLTVVHQDWLNGKEYKCKVSNKGLPAPIEKTISKTKGQPREPQVYTLPPSREEMTKNQVSLTCLVKGFYPSDIAVEWESNGQPENNYKTTPPMLDSDGSFFLYSKLTVDKSRWQQGNVFSCSVMHEALHNHYTQKSLSLSPGK light: QSALTQPASVSGSPGQSITISCTGTSSDVGSYNVVSWYQQHPGKAPKLIIYEVSQRPSGVSNRFSGSKSGNTASLTISGLQTEDEADYYCCSYAGSSIFVIFGGGTKVTVLGQPKAAPSVTLFPPSSEELQANKATLVCLVSDFYPGAVTVAWKADGSPVKVGVETTKPSKQSNNKYAASSYLSLTPEQWKSHRSYSCRVTHEGSTVEKTVAPAECS			significantly suppressed tumor growth	maximum tolerated dose (MTD) [3]: no MTD was identified; also recorded: no maximum tolerated dose (MTD) reached; progression-free survival (PFS) [4]: improved progression-free survival; also recorded: increased PFS; CL [5, 6]: 3.15 L/wk; Q [5, 6]: 2.92 L/wk; V [5, 6]: 3.23 L; V2 [5, 6]: 2.68 L; Cov CL and V ([5]; random effect): 27%; Omega CL ([5]; random effect): 36%; Omega V ([5]; random effect): 37%
